The source of these data is PMC11363490, “Structural and biochemical characterization of cauliflower mosaic virus reverse transcriptase”.

Data set [1] concerns the target CaMV RT RNase H mutant D421N (cauliflower mosaic virus).
The target of another data set is CaMV RT (Cauliflower mosaic virus, UniProt A0A2D2PYL0 197-675). The data set can be described thus: gel filtration; 5 mM MgCl2; stable 1:1 complex; Gel filtration: 25 mM Hepes pH 7.5, 200 mM NaCl, 5% glycerol, 5 mM MgCl2, 1 mM DTT, 30 min on ice; crystals: protein in 20 mM Hepes pH 7.5, 200 mM NaCl, 5% glyc. Particulars: protein: recombinant; tags: none (N-terminal 6xHis-SUMO removed with Ulp1); 5' overhang 2 nt on RNA strand (GG), 22 bp. For orientation: Size exclusion chromatography separates by hydrodynamic size, large species first.

Turning to “cauliflower mosaic virus (CaMV) reverse transcriptase, wild type (from UniProt P03554 1-679) (enzyme)”, the RNase H cleavage efficiency on R40/D28, 1:1:1 mixture of wt RT:mutant RT:substrate, 120 min (against ∼18% for 1:1 wt enzyme:substrate) in data set [1] turned out to be 60%.

B1: RNA-24/DNA-22 hybrid (DNA:RNA)
RNA: GGCAGUGGUCCAGCAGUGCGUAGC
DNA: GCTACGCACTGCTGGACCACTG
Turning to B1, the binding result with CaMV RT was “binds”.
